According to patent US20240425546A1 (NANTONG YICHEN BIOPHARMA, published 2024):
Values belong to the binder of their own block, whether it stands above or below them.

How the values were obtained:
E64AK-F4-mFc = molecular target: T1, E64AK-F4-mFc (mouse, UniProt P01863 123-330 = IgG part); assay: ELISA, antigen coated
T1 construct: scFv fused to the Fc of mouse IgG2a by a linker; also called E64AK-F4-mFc fusion antibody

WT hIL-1β [1] = molecular target: T2, WT hIL-1β (human, UniProt P01584 117-269); assay: cell-based or functional assay
WT hIL-1β [2] = molecular target: T2, WT hIL-1β; assay: competitive ELISA on coated WT hIL-1β; canakinumab diluted in series, competitor E64AK-F4-mFc (100 nM)

T1 sequence (VL, as listed by the source limits assumed, chain 1 of 3): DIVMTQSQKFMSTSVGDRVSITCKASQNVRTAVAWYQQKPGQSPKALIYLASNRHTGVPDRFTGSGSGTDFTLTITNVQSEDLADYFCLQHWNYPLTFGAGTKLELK
T1 sequence (VH, as listed by the source limits assumed, chain 2 of 3): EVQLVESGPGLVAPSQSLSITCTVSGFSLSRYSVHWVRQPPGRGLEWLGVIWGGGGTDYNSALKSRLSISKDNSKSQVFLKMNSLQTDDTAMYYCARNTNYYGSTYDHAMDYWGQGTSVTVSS
T1 sequence (P01863 other isoform, or with tags, fused parts or gaps limits assumed, chain 3 of 3): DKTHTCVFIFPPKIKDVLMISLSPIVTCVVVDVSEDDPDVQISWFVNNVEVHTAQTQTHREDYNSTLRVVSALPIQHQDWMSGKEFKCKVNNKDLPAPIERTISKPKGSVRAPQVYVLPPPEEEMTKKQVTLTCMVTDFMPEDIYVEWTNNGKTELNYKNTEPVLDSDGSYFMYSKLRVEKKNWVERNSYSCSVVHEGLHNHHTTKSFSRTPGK

- binding result (E64AK-F4-mFc): no binding
B1: hIL-1β63-66A (ligand)
chain: APVRSLNCTLRDSQQKSLVMSGPYELKALHLQGQDMEQQVVFSMSFVQGEESNDKIPVALGLAAAALYLSCVLKDDKPTLQLESVDPKNYPKKKMEKRFVFNKIEINNKLEFESAQFPNWYISTSQAENMPVFLGGTKGGQDITDFTMQFVSS
notes: also called IL-1β mutant containing four alanine mutations; hIL-1βE63-66A

- inhibition of IL-1β-induced activation of HEK-Blue IL-1R cells (SEAP), IC50 (WT hIL-1β [1]): 4.7 nM
- IC50 (WT hIL-1β [2]): 2.1 nM
B2: Canakinumab (antibody, V domains shown)
VH: QVQLVESGGGVVQPGRSLRLSCAASGFTFSVYGMNWVRQAPGKGLEWVAIIWYDGDNQYYADSVKGRFTISRDNSKNTLYLQMNGLRAEDTAVYYCARDLRTGPFDYWGQGTLVTVSS
VL: EIVLTQSPDFQSVTPKEKVTITCRASQSIGSSLHWYQQKPDQSPKLLIKYASQSFSGVPSRFSGSGSGTDFTLTINSLEAEDAAAYYCHQSSSLPFTFGPGTKVDIKR
